Results: US8357523B2, “Beta-glucosidase variant enzymes and related polynucleotides” (Codexis, Inc., priority 2009, dated 2013)

B1: 136 (protein)
chain: STAIAQEGAAPAAILHPEKWPRPATQRLIDPAVEKRVDALLKQLSVEEKVGQVIQGDIGTITPEDLRKYPLGSILAGGNSGPNGDDRAPPKEWLDLADAFYRVSLEKRPGHTPIPVLFGIDAVHGHGKIGSATIFPHNIALGMTRDPELLRRIGEVTAQEMAATGIDWTFAPALSVVRDDRWGRTYEGFSEDPEIVASYSAAIVEGVQGKYGSKDFMAPGRAVACAKHFLADGGTDQGRDQGDARISEDELIRIHNAGYPPAIDAGVLTVMASFSSWQGIKHHGHKQLLTDVLKGQIGFNGFIVGDWNAHDQVPGCTKFNCPTSLIAGLDMYMAADSWKQLYENTLAQVKDGTIPMARLDDAVRRILRVKVLAGLFEKPAPKDRPGLPGLETLGSPEHRAVGREAVRKSLVLLKNDKGTLPLSPKARVLVAGDGADNIGKQSGGWTISWQGTGNRNDEFPGATSILGGIRDAVADAGGSVEFDVAGRYKTKPDVAIVVFGEEPYAEFQGDVETLEYQPDQKQDLALLKKLKDQGIPVVAVFLSGRPMWVNPELNASDAFVAAWLPGTEGGGVADVLFTDKAGKVQHDFAGKLSYSWPRTAAQTTVNRGDADYNPLFAYGYGLTYKDKSKVGTLPEESGVPAEARQNAGIYFRAGALRLPGRFL
B2: 140 (protein)
chain: STAIAQEGAAPAAILHPEKWPRPATQRLIDPAVEKRVDALLKQLSVEEKVGQVIQGDIGTITPEDLRKYPLGSILAGGDSGPNGDDRAPPKEWLDLADAFYRVSLEKRPGHTPIPVLFGIDAVHGHGNIGSATIFPHNIALGMTRDPELLRRIGEVTAQEMAATGIDWTFAPALSVVRDDRWGRTYEGFSEDPEIVAAYSPAIVEGVQGKYGSKDFMAVGRIVACAKHFLADGGTDQGRDQGDARISEDELIRIHNAGYPPAIDAGVLTVMASFSSWQGIKHHGHKQLLTDVLKGQMGFNGFIVGDWNAHDQVPGCTKFNCPTSLIAGLDMYMAADSWKQLYENTLAQVKDGTIPMARLDDAVRRILRVKVLAGLFEKPAPKDRPGLPGLETLGSPEHRAVGREAVRKSLVLLKNDKGTLPLSPKARVLVAGDGADNIGKQSGGWTISWQGTGNRNDEFPGATSILGGIRDAVADAGGSVEFDVAGQYKTKPDVAIVVFGEEPYAEFQGDVETLEYQPDQKQDLALLKKLKDQGIPVVAVFLSGRPMWVNPELNASDAFVAAWLPGTEGGGVADVLFTDKAGKVQHDFAGKLSYSWPRTAAQTTVNRGDADYNPLFAYGYGLTYKDKSKVGTLPEESGVPAEARQNAGIYFRAGALRLPGRFL
B3: 141 (protein)
chain: STAIAQEGAAPAAILHPEKWPRPATQRLIDPAVEKRVDALLKQLSVEEKVGQVIQGDIGTITPEDLRKYPLGSILAGGNSGPNGDDRAPPKEWLDLADAFYRVSLEKRPGHTPIPVLFGIDAVHGHGNIGSATIFPHNIALGMTRDPELLRRIGEVTAVEMAATGIDWTFAPALSVVRDDRWGRTYEGFSEDPEIVAAYSAAIVEGVQGKYGSKDFMAVGRIVACAKHFLADGGTDQGRDQGDARISEDELIRIHNAGYPPAIDAGVLTVMASFSSWQGIKHHGHKQLLTDVLKGQMGFNGFIVGDWNAHDQVPGCTKFNCPTSLIAGLDMYMAADSWKQLYENTLAQVKDGTIPMARLDDAVRRILRVKVLAGLFEKPAPKDRPGLPGLETLGSPEHRAVGREAVRKSLVLLKNDKGTLPLSPKARVLVAGDGADNIGKQSGGWTISWQGTGNRNDEFPGATSILGGIRDAVADAGGSVEFDVAGQYKTKPDVAIVVFGEEPYAEFQGDVETLEYQPDQKQDLALLKKLKDQGIPVVAVFLSGRPMWVNPELNASDAFVAAWLPGTEGGGVADVLFTDKAGKVQHDFAGKLSYSWPRTAAQTTVNRGDADYNPLFAYGYGLTYKDKSKVGTLPEESGVPAEARQNAGIYFRAGALRLPGRFL
B4: 143 (protein)
chain: STAIAQEGAAPAAILHPEKWPRPATQRLIDPAVEKRVDALLKQLSVEEKVGQVIQGDIGTITPEDLRKYPLGSILAGGNSGPNGDDRAPPKEWLDLADAFYRVSLEKRPGHTPIPVLFGIDAVHGHGNIGSATIFPHNIALGMTRDPELLRRIGEVTAVEMAATGIDWTFAPALSVVRDDRWGRTYEGFSEDPEIVASYSAAIVEGVQGKYGSKDFMAPGRIVACAKHFLADGGTDQGRDQGDARISEDELIRIHNAGYPPAIDAGVLTVMASFSSWQGIKHHGHKQLLTDVLKGQMGFNGFIVGDWNAHDQVPGCTKFNCPTSLIAGLDMYMAADSWKQLYENTLAQVKDGTIPMARLDDAVRRILRVKVLAGLFEKPAPKDRPGLPGLETLGSPEHRAVGREAVRKSLVLLKNDKGTLPLSPKARVLVAGDGADNIGKQSGGWTISWQGTGNRNDEFPGATSILGGIRDAVADAGGSVEFDVAGQYKTKPDVAIVVFGEEPYAEFQGDVETLEYQPDQKQDLALLKKLKDQGIPVVAVFLSGRPMWVNPELNASDAFVAAWLPGTEGGGVADVLFTDKAGKVQHDFAGKLSYSWPRTAAQTTVNRGDADYNPLFAYGYGLTYKDKSKVGTLPEESGVPAEARQNAGIYFRAGALRLPGRFL
B5: 139 (protein)
chain: STAIAQEGAAPAAILHPEKWPRPATQRLIDPAVEKRVDALLKQLSVEEKVGQVIQGDIGTITPEDLRKYPLGSILAGGNSGPNGDDRAPPKEWLDLADAFYRVSLEKRPGHTPIPVLFGIDAVHGHGNIGSATIFPHNIALGMTRDPELLRRIGEVTAVEMTATGIDWTFAPALSVVRDDRWGRTYEGFSEDPEIVAAYSAAIVEGVQGKYGSKDFMAPGRIVACAKHFLADGGTDQGRDQGDARISEDELIRIHNAGYPPAIDAGVLTVMASFSSWQGIKHHGHKQLLTDVLKGQMGFNGFIVGDWNAHDQVPGCTKFNCPTSLIAGLDMYMAADSWKQLYENTLAQVKDGTIPMARLDDAVRRILRVKVLAGLFEKPAPKDRPGLPGLETLGSPEHRAVGREAVRKSLVLLKNDKGTLPLSPKARVLVAGDGADNIGKQSGGWTISWQGTGNRNDEFPGATSILGGIRDAVADAGGSVEFDVAGQYKTKPDVAIVVFGEEPYAEFQGDVETLEYQPDQKQDLALLKKLKDQGIPVVAVFLSGRPMWVNPELNASDAFVAAWLPGTEGGGVADVLFTDKAGKVQHDFAGKLSYSWPRTAAQTTVNRGDADYNPLFAYGYGLTYKDKSKVGTLPEESGVPAEARQNAGIYFRAGALRLPGRFL
B6: 138 (protein)
chain: STAIAQEGAAPAAILHPEKWPRPATQRLIDPAVEKRVDALLKQLSVEEKVGQVIQGDIGTITPEDLRKYPLGSILAGGDSGPNGDDRAPPKEWLDLADAFYRVSLEKRPGHTPIPVLFGIDAVHGHGKIGSATIFPHNIALGATRSPELLRRIGEVTAEEMAATGIDWTFAPALSVVRDDRWGRTYEGFSEDPEIVAAYSAAIVEGVQGKYGSKDFMAPGRSVACAKHFLADGGTDQGRDQGDARISEDELIRIHNAGYPPAIDAGVLTVMASFSSWQGIKHHGHKQLLTDVLKGQMGFNGFIVGDWNAHDQVPGCTKFNCPTSLIAGLDMYMAADSWKQLYENTLAQVKDGTIPMARLDDAVRRILRVKVLAGLFEKPAPKDRPGLPGLETLGSPEHRAVGREAVRKSLVLLKNDKGTLPLSPKARVLVAGDGADNIGKQSGGWTISWQGTGNRNDEFPGATSILGGIRDAVADAGGSVEFDVAGQYKTKPDVAIVVFGEEPYAEFQGDVETLEYQPDQKQDLALLKKLKDQGIPVVAVFLSGRPMWVNPELNASDAFVAAWLPGTEGGGVADVLFTDKAGKVQHDFAGKLSYSWPRTAAQTTVNRGDADYNPLFAYGYGLTYKDKSKVGTLPEESGVPAEARQNAGIYFRAGALRLPGRFL
B7: 144 (protein)
chain: STAIAQEGAAPAAILHPEKWPRPATQRLIDPAVEKRVDALLKQLSVEEKVGQVIQGDIGTITPEDLRKYPLGSILAGGNSGPNGDDRAPPKEWLDLADAFYRVSLEKRPGHTPIPVLFGIDAVHGHGKIGSATIFPHNIALGATRDPELLRRIGEVTAVEMTATGIDWTFAPALSVVRDDRWGRTYEGFSEDPEIVASYSAAIVEGVQGKYGSKDFMAVGRIVACAKHFLADGGTDQGRDQGDARISEDELIRIHNAGYPPAIDAGVLTVMASFSSWQGIKHHGHKQLLTDVLKGQMGFNGFIVGDWNAHDQVPGCTKFNCPTSLIAGLDMYMAADSWKQLYENTLAQVKDGTIPMARLDDAVRRILRVKVLAGLFEKPAPKDRPGLPGLETLGSPEHRAVGREAVRKSLVLLKNDKGTLPLSPKARVLVAGDGADNIGKQSGGWTISWQGTGNRNDEFPGATSILGGIRDAVADAGGSVEFDVAGQYKTKPDVAIVVFGEEPYAEFQGDVETLEYQPDQKQDLALLKKLKDQGIPVVAVFLSGRPMWVNPELNASDAFVAAWLPGTEGGGVADVLFTDKAGKVQHDFAGKLSYSWPRTAAQTTVNRGDADYNPLFAYGYGLTYKDKSKVGTLPEESGVPAEARQNAGIYFRAGALRLPGRFL
B8: 142 (protein)
chain: STAIAQEGAAPAAILHPEKWPRPATQRLIDPAVEKRVDALLKQLSVEEKVGQVIQGDIGTITPEDLRKYPLGSILAGGDSGPNGDDRAPPKEWLDLADAFYRVSLEKRPGHTPIPVLFGIDAVHGHGKIGSATIFPHNIALGATRDPELLRRIGEVTAVEMAATGIDWTFAPALSVVRDDRWGRTYEGFSEDPEIVAAYSPAIVEGVQGKFGSKDFMAVGRIVASAKHFLADGGTDQGRDQGDARISEDELIRIHNAGYPPAIDAGVLTVMASFSSWQGIKHHGHKQLLTDVLKGQMGFNGFIVGDWNAHDQVPGCTKFNCPTSLIAGLDMYMAADSWKQLYENTLAQVKDGTIPMARLDDAVRRILRVKVLAGLFEKPAPKDRPGLPGLETLGSPEHRAVGREAVRKSLVLLKNDKGTLPLSPKARVLVAGDGADNIGKQSGGWTISWQGTGNRNDEFPGATSILGGIRDAVADAGGSVEFDVAGQYKTRPDVAIVVFGEEPYAEFQGDVETLEYQPDQKQDLALLKKLKDQGIPVVAVFLSGRPMWVNPELNASDAFVAAWLPGTEGGGVADVLFTDKAGKVQHDFAGKLSYSWPRTAAQTTVNRGDADYNPLFAYGYGLTYKDKSKVGTLPEESGVPAEARQNAGIYFRAGALRLPGRFL

Assay: High throughput cellobiose assay: fold improvement in cellobiase activity of CelA variants over a control enzyme (Tables 2A-2D, 3, 5, 6, 7)
Format: biochemical
Settings: 3.3 g/l cellobiose, 55° C. and pH 6.0

Molecule	Fold improvement over Control Variant No. 5 from Table 2A
B1	++ (++ = 1.1 to 6 fold improvement over control Variant No. 2)
B2	+++ (+++ = 6 to 13 fold improvement over control Variant No. 2)
B3	+++ (+++ = 6 to 13 fold improvement over control Variant No. 2)
B4	+++ (+++ = 6 to 13 fold improvement over control Variant No. 2)
B5	+++ (+++ = 6 to 13 fold improvement over control Variant No. 2)
B6	+++ (+++ = 6 to 13 fold improvement over control Variant No. 2)
B7	+++ (+++ = 6 to 13 fold improvement over control Variant No. 2)
B8	+++ (+++ = 6 to 13 fold improvement over control Variant No. 2)
